“Also recorded” adds a separate entry of the source. Ends that are not written are not given here.
Assays:
SF1 [1] = target: T1, SF1 (Bos taurus, UniProt Q04752); assay: Yeast two-hybrid assay (HIS3 / β-galactosidase reporter); type: cell-based, bovine; set-up: The coding region for the wild type bovine SF1 was first subcloned into a yeast expression vector, pGBT9; expressed in transfected cells; host or cells: yeast (Y187, or Y187 x CG1945 diploids); settings: no ligand
Procedure: (§1) The protein-protein interactions between the full-length PNRC or PNRC fragments and SF1, ERRα1, and several other nuclear receptors were analyzed by yeast two-hybrid assays. The yeast two-hybrid assay was used to test if PNRC also interacts with other members of the nuclear receptor superfamily. pGBT9-ERRα-1 yeast expression plasmid was prepared by inserting the PCR-amplified ERRA-1 coding region into pGBT9 through an EcoRI site. To construct the plasmid pGBT9-ER274-595, the coding sequence from amino acids 274 to 595 (LBD) of ERα was amplified by PCR with the sense primer 5′-[…]-3′ (SEQ ID NO:1) and antisense primer 5′-[…]-3′ (SEQ ID NO:2) and cloned into the EcoRI/,SalI site of the pGBT9 yeast expression plasmid. pSG5-GRIP1 and several yeast expression plasmids coding for fusion proteins of Gal4-DBD and HBDs of AR, GR, PR, TR, RAR, and RXR in pGBT9 vector were kindly provided by Dr. Michael R. Stallcup (University of Southern California, Los Angeles, Calif.) (Voegel et al., 1996; Hong et al., 1996; Ding et al., 1998). The yeast mating approach was used in yeast two-hybrid assays to study protein-protein interactions as described in Clontech's protocol. Briefly, pGBT9 (DNA-BD vector only), pGBT9/target plasnmids for SF1, ERRα1, and other HBDs of nuclear receptors, and DNA-BD/control plasmids (as negative control) were introduced into the reporter strain Y187, and the AD vector alone or wild type PNRC and its deleted fragments-containing pACT2 derivatives were used to transform yeast strain CG1945. The yeast mating was performed by picking one colony from each type and growing both colonies in liquid YPD medium with or without a proper ligand at the following concentrations: 100 nM of estradiol for ER; 10 μM of deoxycorticosterone for GR; 100 nM of dihydrotestosterone for AR; 500 nM of progesterone for PR; 10 μM of T3 for TR; 10 μM of all-trans-retinoic acid for RAR; and 10 μM of 9-cis-retinoic acid for RXR. The same amount of an aliquot of the mating culture was spread on both SD/-Leu/-Trp plates to select diploid strains bearing both plasmids and SD/-Leu/-Trp/-His/+3-AT plates to score the growth of the diploid cells that express the two interacting target proteins. The His3 positive colonies were further analyzed for β-galactosidase activity by liquid β-galactosidase activity measurement as essentially described in the protocol.
(§2) Yeast strains Y187 expressing the Gal4DB fusion to the nuclear receptors and CG1945expressing Gal4AD alone or Gal4AD-PNRC fusion protein were mated by co-culturing, and selected for the presence of both two-hybrid plasmids. The expression of interacting hybrid proteins in yeast diploids was analyzed to determine if there was induction of HIS3 expression as shown in FIG. 1A and LacZ expression as shown in FIGS. 1B and 1C. […] As shown in FIGS. 1A-C, PNRC also interacted specifically with all seven nuclear receptor HBDs, including ER, AR, GR, TR, PR, RAR and RXR, and these interactions were completely ligand-dependent. […] However, no interactions occurred either between PNRC and an irrelevant protein such as human lamin C protein or between nuclear receptors and Gal4activation domain alone.

SF1 [2] = target: T1, SF1; assay: GST pull-down binding assay; set-up: The coding region for the wild type bovine SF1 was first subcloned into a yeast expression vector, pGBT9; expressed in transfected cells; host or cells: yeast (Y187, or Y187 x CG1945 diploids); species or system bovine; settings: GST fusion on glutathione Sepharose beads, 2 hour at 4° C.
Procedure: To further confirm the interaction between PNRC and SF1 which was detected in both the yeast and the mammalian two-hybrid assays, a GST pull-down binding assay was performed to study the direct binding between PNRC and SF1 in vitro. The PNRC cDNA fragments were generated by PCR and inserted into E. coli expression vector pGEX2TK (Pharnacia) through a BamHI site to express GST-PNRC wild type and deletion mutants fusion proteins. Wild type bovine SF1 cDNA in pSG5 vector was translated in vitro in the presence of [^35S]methionine using the TNT Coupled Reticulocyte Lysate System (Promega, Madison, Wis.). GST and deleted PNRC fusion proteins, GST-PNRC270-327 and GST-PNRC278-300, were prepared using the affinity matrix Glutathione Sepharose 4B (Pharmacia) according to the supplier's instructions. The washed beads containing about 10 μg GST fusion protein were incubated for 2 hour at 4° C. with 4 μl in vitro translated, [^35S]methionine-labeled SF1 in a total volume of 150 μl incubation buffer (50 mM Kpi, pH 7.4, 100 mM NaCl, 1 mM MgCl2, 10% glycerol, 0.1% Tween 20, 1.5% BSA) (Treuter et al., 1998). […]
PNRC fragments, including PNRC270-327 and PNRC278-300 were expressed as fusion proteins with glutathione S-transferase (GST) in E. coli BL21, purified with glutathione Sepharose 4B beads, and tested for their ability to bind in vitro translated [^35S]methionine-labeled SF1 in pull-down assays.

SF1 [3] = target: T1, SF1; assay: Mammalian two-hybrid assay in SK-BR-3 cells (CAT reporter); type: cell-based, bovine; set-up: expressed in transfected cells; host or cells: SK-BR-3
Procedure: The Mammalian MatchMaker two-hybrid assay system (Clontech) was used to confirm the interaction between PNRC and SF1 that was identified in the yeast assays. Because the assays are performed in mammalian cells, proteins are more likely to be in their native conformations, and the results are therefore more likely to represent biologically significant interactions. SK-BR-3 breast cancer cells were cotransfected with three expression plasmids, including pM-SF1 for Gal4 DNA-DB/SF1 fusion protein, pVP16-PNRC for VP16AD-PNRC fusion protein, and a third vector, pG5CAT, to provide the Gal4 DNA-binding site, a promoter, and the CAT reporter gene.
A set of plasmids, named pM-SF1, pVP16-PNRC, pVP16-PNRC270-327, and pVP16-PNRC278-300, for mammalian two-hybrid assays were prepared as follows: SF1 cDNA fragment was excised from pGBT9-SF1 and inserted in frame into Gal4 DNA-binding domain vector pM (Clontech) through an EcoRI site. PCR was used to generate PNRC full length coding region as well as the above mentioned deleted fragments with BclI at both ends. The PCR products were digested with BclI and inserted in proper reading frame into a pVP16 activation domain vector (Clontech) at a BamHI site. Mammalian two-hybrid assays in SK-BR-3 cells were performed according to the procedures described in the Clontech protocol (PT3002-1).

TR HBD = assay: Yeast two-hybrid assay (HIS3 / β-galactosidase reporter); type: cell-based; settings: 10 μM of T3
Procedure: as §1, §2

RAR HBD = assay: as above; type: cell-based; settings: 10 μM of all-trans-retinoic acid
Procedure: as §1, §2

PR HBD = assay: as above; type: cell-based; settings: 500 nM of progesterone
Sequence of PR HBD (P06401 679-933 limits assumed): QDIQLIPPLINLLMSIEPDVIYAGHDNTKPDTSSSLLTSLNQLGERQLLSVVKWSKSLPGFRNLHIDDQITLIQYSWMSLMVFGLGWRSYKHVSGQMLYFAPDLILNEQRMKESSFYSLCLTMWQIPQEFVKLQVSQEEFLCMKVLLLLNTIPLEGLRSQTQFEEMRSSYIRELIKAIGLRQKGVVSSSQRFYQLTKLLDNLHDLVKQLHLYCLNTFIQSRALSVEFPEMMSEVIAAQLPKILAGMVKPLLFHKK
Procedure: as §1, §2

RXR HBD = assay: as above; type: cell-based; settings: 10 μM of 9-cis-retinoic acid
Procedure: as §1, §2

[4] = target: T2, Gal4AD-PNRC fusion protein (full-length proline-rich nuclear receptor co-regulatory protein) (human, UniProt Q12796 1-327); assay: yeast two-hybrid (HIS3 and LacZ reporters)
T2 construct: Yeast two-hybrid prey; also called wild type PNRC in pACT2; B4-2
T2 sequence (Q12796 whole entry, the tested form may be a part): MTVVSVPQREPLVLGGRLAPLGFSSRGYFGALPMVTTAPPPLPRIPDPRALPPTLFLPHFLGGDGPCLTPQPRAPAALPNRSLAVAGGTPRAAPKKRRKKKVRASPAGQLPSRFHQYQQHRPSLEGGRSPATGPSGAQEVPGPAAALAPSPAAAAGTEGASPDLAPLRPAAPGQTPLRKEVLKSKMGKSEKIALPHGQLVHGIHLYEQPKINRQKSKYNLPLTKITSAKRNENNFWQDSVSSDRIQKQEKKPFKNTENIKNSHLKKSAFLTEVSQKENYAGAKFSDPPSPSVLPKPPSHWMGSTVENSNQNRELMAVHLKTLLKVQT

[5] = target: T3, Gal4 DNA-DB/SF1 fusion protein (pM-SF1) (bovine, UniProt P04386 1-147; Q04752 1-461); assay: mammalian two-hybrid, CAT reporter, SK-BR-3 cells
T3 construct: Mammalian two-hybrid construct, expressed in SK-BR-3 cells

[6] = target: T4, Gal4DBD-SF1 fusion protein (bovine steroidogenic factor 1, pGBT9-SF1) (bovine, UniProt P04386 1-147; Q04752 1-461); assay: yeast two-hybrid (HIS3 and LacZ reporters)
T4 construct: Yeast two-hybrid bait; whole wild type coding region; also called DBDGal4-SF1

[7] = target: Gal4DBD-ERRα1 fusion protein (estrogen related receptor α-1, pGBT9-ERRα-1) (UniProt P04386 1-147; P11474 1-423); assay: yeast two-hybrid (HIS3 and LacZ reporters)
[8] = target: T5, Gal4DBD fusion of ERα ligand-binding domain, amino acids 274 to 595 (pGBT9-ER274-595) (UniProt P04386 1-147; P03372 274-595); assay: yeast two-hybrid (HIS3 and LacZ reporters)
T5 construct: Tested with 100 nM estradiol; also called ER HBD

T1 sequence (Q04752 whole entry, the tested form may be a part): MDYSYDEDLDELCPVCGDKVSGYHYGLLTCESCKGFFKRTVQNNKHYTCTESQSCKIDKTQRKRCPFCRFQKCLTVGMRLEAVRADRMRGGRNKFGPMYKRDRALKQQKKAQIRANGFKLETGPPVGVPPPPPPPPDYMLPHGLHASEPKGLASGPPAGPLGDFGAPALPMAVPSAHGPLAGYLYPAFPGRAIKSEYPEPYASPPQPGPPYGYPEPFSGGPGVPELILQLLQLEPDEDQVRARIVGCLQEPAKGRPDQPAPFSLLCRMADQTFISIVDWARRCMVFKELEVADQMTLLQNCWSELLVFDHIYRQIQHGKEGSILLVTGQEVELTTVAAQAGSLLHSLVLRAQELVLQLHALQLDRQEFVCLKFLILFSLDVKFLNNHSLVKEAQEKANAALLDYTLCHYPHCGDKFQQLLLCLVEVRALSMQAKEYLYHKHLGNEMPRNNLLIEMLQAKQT

PNRC/270-327: C-terminal PNRC fragment aa 270-327, expressed as Gal4AD, VP16 or GST fusion protein
interaction with SF1 (SF1 [1]): about the same; also recorded: stronger than the interaction between PNRC/278-300 and SF1
binding of in vitro translated 35S-labeled SF1 (SF1 [2]): found to bind SF1

PNRC278-300: 23-amino acid PNRC region aa 278-300 (SEQ ID NO:9), expressed as Gal4AD, VP16 or GST fusion protein (NYAGAKFSDPPSPSVLPKPPSHW; listed as Homo sapiens)
interaction with SF1 (SF1 [1]): able to interact with SF1
interaction with SF1 in mammalian two-hybrid assay (SF1 [3]): retain most of the interaction of full length PNRC to SF1
binding of in vitro translated 35S-labeled SF1 (SF1 [2]): found to bind SF1

NR box: NR box-like sequence LKTLL (aa 319-323; SEQ ID NO:4) of PNRC as fusion protein with Gal4 AD (not fully specified; UniProt Q12796 319-323, looked up, fragment)
interaction with SF1 (SF1 [1]): No interaction was observed

PNRC301-327: PNRC fragment aa 301-327 containing the NR box, Gal4AD fusion protein
interaction with SF1 (SF1 [1]): could not interact with SF1

PNRC/270-317: PNRC fragment aa 270-317 lacking the NR box, Gal4 AD fusion protein
interaction with SF1 (SF1 [1]): about the same

PNRC278-300 (mutant): PNRC278-300 carrying double mutations P287A and P290A (S-D-A-P-S-A-S, SEQ ID NO:6) (SDAPSAS; MUTAGEN (3) This residue has been changed from a proline.; listed as Homo sapiens)
interaction with TR (TR HBD): almost completely abolished the interactions
interaction with RAR (RAR HBD): almost completely abolished the interactions
interaction with PR (PR HBD): almost completely abolished the interactions
interaction with RXR (RXR HBD): almost completely abolished the interactions
interaction with SF1 (SF1 [1]): almost completely abolished the interactions

B1: human lamin C protein (irrelevant protein, DNA-BD/control plasmid) (other, UniProt P04386 1-147, looked up)
chain: MKLLSSIEQACDICRLKKLKCSKEKPKCAKCLKNNWECRYSPKTKRSPLTRAHLTEVESRLERLEQLFLLIFPREDLDMILKMDSLQDIKALLTGLFVQDNVNKDAVTDRLASVETDMPLTLRQHRISATSSSEESSNKGQRQLTVSSEEVVSREVSGIKAAYEAELGDARKTLDSVAKERARLQLELSKVREEFKELKARNTKKEGDLIAAQARLKDLEALLNSKEAALSTALSEKRTLEGELHDLRGQVAKLEAALGEAKKQLQDEMLRRVDAENRLQTMKEELDFQKNIYSEELRETKRRHETRLVEID
notes: that lamin C is the DNA-BD control fusion is inferred from these two statements
binding result [4]: no binding

B2: VP16 activation domain alone (other)
chain: STAPPTDVSLGDELHLDGEDVAMAHADALDDFDLDMLGDGDSPGP
notes: Control of the mammalian two-hybrid assay; also called VP16 AD
binding result [5]: no binding

B3: Gal4 activation domain alone (other, UniProt P04386 768-881, looked up)
chain: ANFNQSGNIADSSLSFTFTNSSNGPNLITTQTNSQALSQPIASSNVHDNFMNNEITASKIDDGNNSKPLSPGWTDQTAYNAFGITTGMFNTTTMDDVYNYLFDDEDTPPNPKKE
notes: Control of the yeast two-hybrid assays; also called Gal4AD; AD vector alone
binding result [6]: no binding
binding result [7]: no binding
binding result [8]: no binding

From patent US6972178B1, “Drug screening using a proline-rich nuclear receptor co-regulatory protein/nuclear receptor co-expression system” (City of Hope, priority 1999, dated 2005)
